Data published in patent EP4480965A1, “TRANSFERRIN RECEPTOR-BINDING MOLECULES, CONJUGATES THEREOF AND THEIR USES TO PREVENT OR TREAT CNS DISEASES” (Vect-Horus, priority 2023, dated 2024).

Tested on: murine SOD1 mRNA
Assay: CNS knock-down of SOD1 mRNA after systemic (SC or IV) administration (RT-qPCR)
Format: in vivo, C57Bl/6 mice
Conditions: SC QDx4 at 15 mg/kg (siRNA molar equivalent), one week after last dose
Experimental: VHH-siSOD1m-5'VP conjugates or heterodimeric VHH-hFc-siSOD1m-5'VP conjugates were generated and compared for their potential to trigger BBB-crossing and functional delivery in CNS tissues following systemic administration. Wild-type C57Bl/6 mice (4-8 per group) were administered with either four daily SC doses (QDx4) of unconjugated siSOD1m-5'VP or the C5-siSOD1m-5'VP conjugate at 15 mg/kg (siRNA molar equivalent), or three IV doses of the C5-hFc-siSOD1m-5'VP conjugate every two days (Q2Dx3) at 1.5 mg/kg (siRNA molar equivalent), compared to PBS injected mice. […] RNA samples were analyzed and dosed using a Fragment Analyzer RNA kit in a Fragment Analyzer system (Agilent). Relative RNA expression levels were quantified by RT-qPCR using the TaqMan™ Fast Universal PCR Master Mix (2X) no AmpErase™ LTNG kit (Applied Biosystems) and commercially available TaqMan™ probes for the target murine SOD1 and reference RpL13 and PUM1 genes (Applied Biosystems). Expression data were analyzed using the […]Cq method normalized to the expression of the reference RpL13 gene, for brain regions, or RpL13 and PUM1 genes for total brain, spinal cord, liver, kidney (multiplex qPCR), based on raw quantification cycle (Cq) values (Bustin et al.). The results are expressed as means ± standard error of the mean (SEM) and are presented as mRNA levels relative to the control animals injected with PBS. […]

B1: C5-siSOD1m-5'VP: TfR-binding VHH-siRNA conjugate wherein VHH is C5 (conjugate)
VHH: EVQLVESGGGVVQPGGSLKLSCVASGTDFSINFIRWYRQAPGKQREFVAGFTATGNTNYADSMKGRFTISRDNTKNAVYLQIDSLKPEDTAVYYCYMLDKWGQGTQVTVSSAAAEQKLISEEDLNGAAHHHHHHGS
Q: B1 was tested. Which “SOD1 mRNA KD in total brain and spinal cord” value did it give?
A: 30-40%
